Patent US20130005646A1 (Novo Nordisk, published 2013)
Starred links: 1 amine or outer side, 2 acyl side, 3 side chain; linkers in the order of their positions; H or OH if unused. Positions of bridges follow the written chain, without caps; N, C: chain ends. Groups on a side chain read outwards from the residue. No end group written: not given here. *: point of attachment. X1 = (S)‑4‑Carboxy‑4‑(19-carboxynonadecanoylamino)butyryl, O=C(O)CCCCCCCCCCCCCCCCCCC(=O)N[C@@H](CCC(=O)*)C(=O)O; C20 diacid = O=C(O)CCCCCCCCCCCCCCCCCCC(=O)*; γGlu = O=C(O)[C@H](CCC(=O)[*:2])N[*:1]; AEEA = NCCOCCOCC(=O)O

T1: human amylin 3(a) receptor (human calcitonin receptor + RAMP-3) (human, UniProt P30988 25-474; O60896 24-148)
T1 sequence (looked up) 1: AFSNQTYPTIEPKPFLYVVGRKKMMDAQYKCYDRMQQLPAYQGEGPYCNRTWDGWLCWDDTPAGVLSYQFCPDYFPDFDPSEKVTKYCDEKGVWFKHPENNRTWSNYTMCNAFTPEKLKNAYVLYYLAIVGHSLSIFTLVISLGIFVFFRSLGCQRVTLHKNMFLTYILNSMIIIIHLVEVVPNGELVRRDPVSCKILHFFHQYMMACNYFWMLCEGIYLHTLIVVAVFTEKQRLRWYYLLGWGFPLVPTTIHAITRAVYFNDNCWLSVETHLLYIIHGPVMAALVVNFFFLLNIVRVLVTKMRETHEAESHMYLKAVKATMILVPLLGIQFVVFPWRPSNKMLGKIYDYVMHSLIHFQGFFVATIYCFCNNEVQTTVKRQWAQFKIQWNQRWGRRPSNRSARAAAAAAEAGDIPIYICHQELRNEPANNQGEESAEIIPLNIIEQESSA
T1 sequence (looked up) 2: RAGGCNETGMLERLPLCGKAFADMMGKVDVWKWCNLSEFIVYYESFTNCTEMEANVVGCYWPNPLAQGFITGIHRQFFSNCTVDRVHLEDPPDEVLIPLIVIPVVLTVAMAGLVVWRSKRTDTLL

T2: human calcitonin (a) receptor (human, UniProt P30988 25-474)
T2 sequence (looked up): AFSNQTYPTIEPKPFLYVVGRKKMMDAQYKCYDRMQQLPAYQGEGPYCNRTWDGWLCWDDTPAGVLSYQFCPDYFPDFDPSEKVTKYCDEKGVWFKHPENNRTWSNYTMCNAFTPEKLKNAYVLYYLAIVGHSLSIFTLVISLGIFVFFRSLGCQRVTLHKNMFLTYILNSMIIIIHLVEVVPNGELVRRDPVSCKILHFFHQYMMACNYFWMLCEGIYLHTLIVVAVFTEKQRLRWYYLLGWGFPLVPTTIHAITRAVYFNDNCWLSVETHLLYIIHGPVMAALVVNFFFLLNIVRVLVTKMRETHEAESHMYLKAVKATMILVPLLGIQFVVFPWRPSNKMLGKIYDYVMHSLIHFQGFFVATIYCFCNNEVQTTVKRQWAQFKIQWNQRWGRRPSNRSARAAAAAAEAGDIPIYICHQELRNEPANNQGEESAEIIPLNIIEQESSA


Tests used:
[1] = target: T1, human amylin 3(a) receptor (human …); assay: cell-based or functional assay
[2] = target: T2, human calcitonin (a) receptor; assay: cell-based or functional assay

Row | Binder | Amylin receptor human EC50 [1] | CTa receptor human EC50 [2]
1 | {C20 diacid-γGlu}-ECNTATCATQRLAEFLVHSSQNFGPILPPTNVGSQTP-NH2 (disulfide 2-7; SMILES CC[C@H](C)[C@H](NC(=O)[C@@H]1CCCN1C(=O)CNC(=O)[C@H](Cc1ccccc1)NC(=O)[C@H](CC(N)=O)NC(=O)[C@H](CCC(N)=O)NC(=O)[C@H](CO)NC(=O)[C@H](CO)NC(=O)[C@H](Cc1c[nH]cn1)NC(=O)[C@@H](NC(=O)[C@H](CC(C)C)NC(=O)[C@H](Cc1ccccc1)NC(=O)[C@H](CCC(=O)O)NC(=O)[C@H](C)NC(=O)[C@H](CC(C)C)NC(=O)[C@H](CCCNC(=N)N)NC(=O)[C@H](CCC(N)=O)NC(=O)[C@@H](NC(=O)[C@H](C)NC(=O)[C@@H]1CSSC[C@H](NC(=O)[C@H](CCC(=O)O)NC(=O)CC[C@H](NC(=O)CCCCCCCCCCCCCCCCCCC(=O)O)C(=O)O)C(=O)N[C@@H](CC(N)=O)C(=O)N[C@@H]([C@@H](C)O)C(=O)N[C@@H](C)C(=O)N[C@@H]([C@@H](C)O)C(=O)N1)[C@@H](C)O)C(C)C)C(=O)N[C@@H](CC(C)C)C(=O)N1CCC[C@H]1C(=O)N1CCC[C@H]1C(=O)N[C@H](C(=O)N[C@@H](CC(N)=O)C(=O)N[C@H](C(=O)NCC(=O)N[C@@H](CO)C(=O)N[C@@H](CCC(N)=O)C(=O)N[C@H](C(=O)N1CCC[C@H]1C(N)=O)[C@@H](C)O)C(C)C)[C@@H](C)O) | 1.51 nM | 0.496 nM
2 | KCNTATCATQRLAEFLHHSSK([AEEA-AEEA-γGlu-19‑carboxyheptadecanoyl])NFGPILSPTNVGSHTY-NH2 (disulfide 2-7) | 0.625 nM | 0.347 nM
3 | KCNTATCATQRLANFLHHSSK([AEEA-AEEA-γGlu-19‑carboxyheptadecanoyl])NFGPILSPTNVGSHTY-NH2 (disulfide 2-7) | 0.482 nM | 0.889 nM
4 | {C20 diacid-γGlu}-GCNTATCATQRLAEFLHHSSQNFGPILPPTNVGSQTP-NH2 (disulfide 2-7; SMILES CC[C@H](C)[C@H](NC(=O)[C@@H]1CCCN1C(=O)CNC(=O)[C@H](Cc1ccccc1)NC(=O)[C@H](CC(N)=O)NC(=O)[C@H](CCC(N)=O)NC(=O)[C@H](CO)NC(=O)[C@H](CO)NC(=O)[C@H](Cc1c[nH]cn1)NC(=O)[C@H](Cc1c[nH]cn1)NC(=O)[C@H](CC(C)C)NC(=O)[C@H](Cc1ccccc1)NC(=O)[C@H](CCC(=O)O)NC(=O)[C@H](C)NC(=O)[C@H](CC(C)C)NC(=O)[C@H](CCCNC(=N)N)NC(=O)[C@H](CCC(N)=O)NC(=O)[C@@H](NC(=O)[C@H](C)NC(=O)[C@@H]1CSSC[C@H](NC(=O)CNC(=O)CC[C@H](NC(=O)CCCCCCCCCCCCCCCCCCC(=O)O)C(=O)O)C(=O)N[C@@H](CC(N)=O)C(=O)N[C@@H]([C@@H](C)O)C(=O)N[C@@H](C)C(=O)N[C@@H]([C@@H](C)O)C(=O)N1)[C@@H](C)O)C(=O)N[C@@H](CC(C)C)C(=O)N1CCC[C@H]1C(=O)N1CCC[C@H]1C(=O)N[C@H](C(=O)N[C@@H](CC(N)=O)C(=O)N[C@H](C(=O)NCC(=O)N[C@@H](CO)C(=O)N[C@@H](CCC(N)=O)C(=O)N[C@H](C(=O)N1CCC[C@H]1C(N)=O)[C@@H](C)O)C(C)C)[C@@H](C)O) | 0.12 nM | 0.072 nM
5 | {C20 diacid-γGlu}-KCNTATCATQRLAEFLVHSSQNFGPILPPTNVGSQTP-NH2 (disulfide 2-7; SMILES CC[C@H](C)[C@H](NC(=O)[C@@H]1CCCN1C(=O)CNC(=O)[C@H](Cc1ccccc1)NC(=O)[C@H](CC(N)=O)NC(=O)[C@H](CCC(N)=O)NC(=O)[C@H](CO)NC(=O)[C@H](CO)NC(=O)[C@H](Cc1c[nH]cn1)NC(=O)[C@@H](NC(=O)[C@H](CC(C)C)NC(=O)[C@H](Cc1ccccc1)NC(=O)[C@H](CCC(=O)O)NC(=O)[C@H](C)NC(=O)[C@H](CC(C)C)NC(=O)[C@H](CCCNC(=N)N)NC(=O)[C@H](CCC(N)=O)NC(=O)[C@@H](NC(=O)[C@H](C)NC(=O)[C@@H]1CSSC[C@H](NC(=O)[C@H](CCCCN)NC(=O)CC[C@H](NC(=O)CCCCCCCCCCCCCCCCCCC(=O)O)C(=O)O)C(=O)N[C@@H](CC(N)=O)C(=O)N[C@@H]([C@@H](C)O)C(=O)N[C@@H](C)C(=O)N[C@@H]([C@@H](C)O)C(=O)N1)[C@@H](C)O)C(C)C)C(=O)N[C@@H](CC(C)C)C(=O)N1CCC[C@H]1C(=O)N1CCC[C@H]1C(=O)N[C@H](C(=O)N[C@@H](CC(N)=O)C(=O)N[C@H](C(=O)NCC(=O)N[C@@H](CO)C(=O)N[C@@H](CCC(N)=O)C(=O)N[C@H](C(=O)N1CCC[C@H]1C(N)=O)[C@@H](C)O)C(C)C)[C@@H](C)O) [N-alpha-[(S)-4-Carboxy-4-(19-carboxynonadecanoylamino)butyryl]-[Glu14,Gln21,Gln35,Pro37]-pramlintide] | 0.107 nM | 0.0585 nM
6 | KCNTATCATQRLAEFLHHSSNNFGK([AEEA-AEEA-γGlu-19‑carboxyheptadecanoyl])ILSSTNVGSHTY-NH2 (disulfide 2-7) | 0.301 nM | 0.111 nM
7 | KCNTATCATQRLANFLHHSSNNFGK([AEEA-AEEA-γGlu-19‑carboxyheptadecanoyl])ILSSTNVGSHTY-NH2 (disulfide 2-7) | 0.199 nM | 0.114 nM
8 | {C20 diacid-γGlu}-KCNTATCATQRLAEFLHHSSQNFGPILPPTNVGSQTP-NH2 (disulfide 2-7; SMILES CC[C@H](C)[C@H](NC(=O)[C@@H]1CCCN1C(=O)CNC(=O)[C@H](Cc1ccccc1)NC(=O)[C@H](CC(N)=O)NC(=O)[C@H](CCC(N)=O)NC(=O)[C@H](CO)NC(=O)[C@H](CO)NC(=O)[C@H](Cc1c[nH]cn1)NC(=O)[C@H](Cc1c[nH]cn1)NC(=O)[C@H](CC(C)C)NC(=O)[C@H](Cc1ccccc1)NC(=O)[C@H](CCC(=O)O)NC(=O)[C@H](C)NC(=O)[C@H](CC(C)C)NC(=O)[C@H](CCCNC(=N)N)NC(=O)[C@H](CCC(N)=O)NC(=O)[C@@H](NC(=O)[C@H](C)NC(=O)[C@@H]1CSSC[C@H](NC(=O)[C@H](CCCCN)NC(=O)CC[C@H](NC(=O)CCCCCCCCCCCCCCCCCCC(=O)O)C(=O)O)C(=O)N[C@@H](CC(N)=O)C(=O)N[C@@H]([C@@H](C)O)C(=O)N[C@@H](C)C(=O)N[C@@H]([C@@H](C)O)C(=O)N1)[C@@H](C)O)C(=O)N[C@@H](CC(C)C)C(=O)N1CCC[C@H]1C(=O)N1CCC[C@H]1C(=O)N[C@H](C(=O)N[C@@H](CC(N)=O)C(=O)N[C@H](C(=O)NCC(=O)N[C@@H](CO)C(=O)N[C@@H](CCC(N)=O)C(=O)N[C@H](C(=O)N1CCC[C@H]1C(N)=O)[C@@H](C)O)C(C)C)[C@@H](C)O) | 0.091 nM | 0.045 nM
9 | X1-HCNTATCATQRLAEFLVRSSNNFGPILPPTNVGSNTP-NH2 (disulfide 2-7; SMILES CC[C@H](C)[C@H](NC(=O)[C@@H]1CCCN1C(=O)CNC(=O)[C@H](Cc1ccccc1)NC(=O)[C@H](CC(N)=O)NC(=O)[C@H](CC(N)=O)NC(=O)[C@H](CO)NC(=O)[C@H](CO)NC(=O)[C@H](CCCNC(=N)N)NC(=O)[C@@H](NC(=O)[C@H](CC(C)C)NC(=O)[C@H](Cc1ccccc1)NC(=O)[C@H](CCC(=O)O)NC(=O)[C@H](C)NC(=O)[C@H](CC(C)C)NC(=O)[C@H](CCCNC(=N)N)NC(=O)[C@H](CCC(N)=O)NC(=O)[C@@H](NC(=O)[C@H](C)NC(=O)[C@@H]1CSSC[C@H](NC(=O)[C@H](Cc2c[nH]cn2)NC(=O)CC[C@H](NC(=O)CCCCCCCCCCCCCCCCCCC(=O)O)C(=O)O)C(=O)N[C@@H](CC(N)=O)C(=O)N[C@@H]([C@@H](C)O)C(=O)N[C@@H](C)C(=O)N[C@@H]([C@@H](C)O)C(=O)N1)[C@@H](C)O)C(C)C)C(=O)N[C@@H](CC(C)C)C(=O)N1CCC[C@H]1C(=O)N1CCC[C@H]1C(=O)N[C@H](C(=O)N[C@@H](CC(N)=O)C(=O)N[C@H](C(=O)NCC(=O)N[C@@H](CO)C(=O)N[C@@H](CC(N)=O)C(=O)N[C@H](C(=O)N1CCC[C@H]1C(N)=O)[C@@H](C)O)C(C)C)[C@@H](C)O) [N-alpha-[(S)-4-Carboxy-4-(19-carboxynonadecanoylamino)butyryl]-[His1,Glu14,Arg18,Pro37]-pramlintide] | 0.0415 nM | 0.022 nM
